Biological target: recombinant SARS-CoV-2 S protein ectodomain (residues 14-1211), 2P, furin site mutated, foldon, 8XHis (SARS-CoV-2), P0DTC2
Assay: ELISA on coated antigen, anti-human IgG-HRP
Settings: remark: other sources report otherwise

B1: mAb 2H04 (antibody)
chain 1: EVQLQQSGAELVKPGASVKMSCKASGYTFTSYWITWVKQRPGQGLEWIGDIYPGSGSTKYNEKFRSEATLTVDTSSTTAYMQLSSLTSEDSAVYYCARWDFYGSRTFDYWGQGTTLTVSS
chain 2: DIVLTQSPAILSVSPGERVSFSCRASQNIGTIIHWYQQRTNGSPRLLIKYASESVSGIPSRFSGSGSGTDFTLSINSVESEDIADYYCQQSSSWPLTFGAGTKLELK
- minimum positive concentration: < 5 µg/mL

— WO2021212049A2
